The numbers were not newly measured in PMC2930029, which cites them from elsewhere.

In data set [1] the target is C3b C3b (Homo sapiens) (UniProt P01024). Put plainly: SPR.
The target is the same in data set [2].

Read-outs that look alike come from different tables or passages of the source.

Sequence of C3b C3b (Homo sapiens) (P01024 566-670): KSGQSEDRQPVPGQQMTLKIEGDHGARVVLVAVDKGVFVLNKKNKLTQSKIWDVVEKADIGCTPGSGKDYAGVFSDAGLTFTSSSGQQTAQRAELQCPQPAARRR
Sequence of Efb (P68799 30-165): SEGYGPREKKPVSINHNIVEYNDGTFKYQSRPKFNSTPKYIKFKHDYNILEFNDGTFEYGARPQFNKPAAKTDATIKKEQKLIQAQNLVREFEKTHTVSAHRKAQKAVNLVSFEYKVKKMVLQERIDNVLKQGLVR
Sequence of Factor H fH(1-4) (P08603 19-264): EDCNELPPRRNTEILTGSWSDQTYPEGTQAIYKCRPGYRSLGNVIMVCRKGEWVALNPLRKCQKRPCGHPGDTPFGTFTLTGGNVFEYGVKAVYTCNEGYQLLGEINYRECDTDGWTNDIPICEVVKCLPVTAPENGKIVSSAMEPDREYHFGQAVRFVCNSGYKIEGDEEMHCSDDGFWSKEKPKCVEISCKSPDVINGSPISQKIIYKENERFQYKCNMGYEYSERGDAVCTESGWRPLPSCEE
Sequence of SCIN (A7X482 32-116): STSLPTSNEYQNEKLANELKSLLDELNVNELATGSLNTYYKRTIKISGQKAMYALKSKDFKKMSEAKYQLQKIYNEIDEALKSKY

As a reminder, the Kd is a measure of binding affinity in units of concentration. In the case of Efb (from UniProt P68799), in the data set with C3b C3b (Homo sapiens) [1], the Kd is 10 nM.

Turning to Factor H fH(1-4) (from UniProt P08603), the Kd with C3b C3b (Homo sapiens) [2] was 11000 nM. Turning to SCIN (from UniProt A7X482), the Kd with C3b C3b (Homo sapiens) [1] was 180 nM.
